{
  "source": "patent US20240290419A1",
  "about": "(KATHOLIEKE UNIVERSITEIT LEUVEN, published 2024)",
  "proteins": {"B1": {"name": "dS6AC (other)", "chain": "NGRIYAVGGYDGSPDGHTHLNSVEAYDPETDEWSFVAPMTTPRSGVGVAVLNGRIYAVGGYDGSPDGHTHLNSVEAYDPETDEWSFVAPMTTPRSGVGVAVLNGRIYAVGGYDGSPDGHTHLNSVEAYDPETDEWSFVAPMTTPRSGVGVAVLNGRIYAVGGYDGSPDGHTHLNSVEAYDPETDEWSFVAPMTTPRSGVGVAVLNGRIYAVGGYDGSPDGHTHLNSVEAYDPETDEWSFVAPMTTPRSGVGVAVLNGRIYAVGGYDGSPDGHTHLNSVEAYDPETDEWSFVAPMTTPRSGVGVAVLSGGRIYAVGGYDGSPDGHTHLNSVEAYDPETDEWSFVAPMTTPRSGVGVAVLNGRIYAVGGYDGSPDGHTHLNSVEAYDPETDEWSFVAPMTTPRSGVGVAVLNGRIYAVGGYDGSPDGHTHLNSVEAYDPETDEWSFVAPMTTPRSGVGVAVLNGRIYAVGGYDGSPDGHTHLNSVEAYDPETDEWSFVAPMTTPRSGVGVAVLNGRIYAVGGYDGSPDGHTHLNSVEAYDPETDEWSFVAPMTTPRSGVGVAVLNGRIYAVGGYDGSPDGHTHLNSVEAYDPETDEWSFVAPMTTPRSGVGVAVL", "notes": "Genetic fusion of two S6AC units via a Ser linker"}, "B2": {"name": "S6BE-3HR-L3 (other)", "chain": "NGLIYAVGGYDGSPDGSTHLNSVEAYDPERNEWSLVAPLSTRRSGVGVAVLNGLIYAVGGFATLETESGELVPTELNSVEAYDPHRNEWSLVAPLSTRRSGVGVAVLNGLIYAVGGYDGSPDGSTHLNSVEAYDPERNEWSLVAPLSTRRSGVGVAVLNGLIYAVGGFATLETESGELVPTELNSVEAYDPHRNEWSLVAPLSTRRSGVGVAVLNGLIYAVGGYDGSPDGSTHLNSVEAYDPERNEWSLVAPLSTRRSGVGVAVLNGLIYAVGGFATLETESGELVPTELNSVEAYDPHRNEWSLVAPLSTRRSGVGVAVL", "notes": "L3 loop graft on the S6BE-3HR scaffold"}, "B3": {"name": "S2BE-3HR (other)", "chain": "NGLIYAVGGYDGNTHLNSVEAYDPERNEWSLVAPLSTRRSGVGVAVLNGLIYAVGGYDGNTHLNSVEAYDPHRNEWSLVAPLSTRRSGVGVAVL", "notes": "Designed two-blade truncation of S6BE-3HR; Expressed from pET-28a with an N-terminal hexahistidine tag that was removed with thrombin"}, "B4": {"name": "S6BE (other)", "chain": "MNGLIYAVGGYDGNTHLNSVEAYDPERNEWSLVAPLSTRRSGVGVAVLNGLIYAVGGYDGNTHLNSVEAYDPERNEWSLVAPLSTRRSGVGVAVLNGLIYAVGGYDGNTHLNSVEAYDPERNEWSLVAPLSTRRSGVGVAVLNGLIYAVGGYDGNTHLNSVEAYDPERNEWSLVAPLSTRRSGVGVAVLNGLIYAVGGYDGNTHLNSVEAYDPERNEWSLVAPLSTRRSGVGVAVLNGLIYAVGGYDGNTHLNSVEAYDPERNEWSLVAPLSTRRSGVGVAVL", "notes": "Designed six-blade B-type SAKe propeller; Expressed with an N-terminal His tag that was removed with thrombin; also called SAKe6BE; S6_6E"}},
  "key": {"[1]": {"target": "the molecule itself", "assay": "size exclusion chromatography", "description": "(§1) FIG. 29: Size Exclusion Chromatograms for various SAKe mutants. A: S6BE-3 HR on a HiLoad Superdex 75 pg 16/600 column. B: S6BE-3CHR on a HiLoad Superdex 200 pg 16/600 column. C: S2BE-3 HR on a HiLoad Superdex 75 pg 16/600 column. D: S6BE-3 HR-L3 on a HiLoad Superdex 200 pg 16/600 column. E: mEm-v22S6BE-3 HR on a HiLoad Superdex 200 pg 16/600 column. F: dS6AC on a HiLoad Superdex 200 pg 16/600 column.\n(§2) Concentrated protein samples were loaded on HiLoad Superdex 75 pg 16/600 or HiLoad Superdex 200 pg 16/600 SEC columns (Cytiva). SEC can also be used to assess biological size. All samples were run with a HEPES buffer (20 mM HEPES, pH 8.0, 200 mM NaCl). Proteins expected to interact with metals were incubated with at least 5 mM EDTA prior to SEC injection."}, "[2]": {"target": "the molecule itself", "assay": "size exclusion chromatography, after EDTA", "description": "as §1, §2"}, "[3]": {"target": "the molecule itself", "assay": "SDS PAGE, SEC, XRD; self-association"}, "[4]": {"target": "the molecule itself", "assay": "dialysis to pH 4.0 and X-ray diffraction; self-assembly into crystals", "description": "SAKe's symmetry and modifiable interfaces make it an ideal building block for construction of macromolecular assemblies. […] To understand this reversible self-assembly mechanism, the crystals formed at different pH were investigated with XRD. […] At pH 8.0, His (pKa3 6.08-6.90) and Glu (pKa 4.3-4.4) are deprotonated and the net […] charge of S6BE likely causes mutual repulsion. However, at pH 4 these residues are protonated. Due to its symmetry and dipole-like character, S6BE shape and charge complementarity is then expected to allow for self-assembly into a tight hexagonal packing (FIGS. 2 and 11). A series of hydrogen bonds and hydrophobic interactions can then further stabilize the assembly. Similar mechanisms have been reported for the capsid proteins of cowpea chlorotic mosaic virus (CCMV) [Speir et al. Structure 1995, 3, 63-78; Lavelle et al. J. Phys. Chem. B 2009, 113, 3813-3819; Van Eldijk et al. J. Am. Chem. Soc. 2012, 134, 18506-18509]."}},
  "data": [
    {"protein": "B1", "values": [
      {"measurement": "binding result", "setting": "[1]", "value": "no binding"}
    ]},
    {"protein": "B2", "values": [
      {"measurement": "binding result", "setting": "[2]", "value": "no binding"}
    ]},
    {"protein": "B3", "values": [
      {"measurement": "binding result", "setting": "[3]", "value": "binds"}
    ]},
    {"protein": "B4", "values": [
      {"measurement": "binding result", "setting": "[4]", "value": "binds"}
    ]}
  ]
}
